Some targets named below: HLA-A*03:01; HLA-A*11:01; HLA-A*31:01; HLA-A*33:01; HLA-A*68:01.
What all share (experiment): IEDB peptide-MHC binding, purified MHC/competitive/radioactivity; filed as Kd, often an IC50 or EC50 that approximates it; ≥ and ≤ were set here for values at or beyond the usual limits of such assays
[1] abbreviates: source organism: SARS coronavirus Tor2.
[2] abbreviates: source organism: Mammarenavirus tacaribeense.
Where [3] appears, read: source organism: Vaccinia virus WR.
[4] abbreviates: source organism: Mammarenavirus juninense.
The mark [5] stands for this setting: source organism: Lassa virus Josiah.
[6] abbreviates: source organism: Mammarenavirus guanaritoense.

Turning to KTVQFCDAMR, the dissociation constant Kd was 1790 nM with HLA-A*03:01 (setting [1]); 267 nM in the test with HLA-A*11:01 (setting [1]); 8.65 nM with HLA-A*31:01 (setting [1]); 1530 nM with HLA-A*33:01 (setting [1]); 90.1 nM in the test with HLA-A*68:01 (setting [1]).
For the sequence QYIHCFRKPH, the dissociation constant Kd in the test with HLA-A*03:01 (setting [2]) is ≥ 70000 nM; in the test with HLA-A*11:01 (setting [2]) it was ≥ 69700 nM; with HLA-A*31:01 (setting [2]), 386 nM; with HLA-A*33:01 (setting [2]) it was 140 nM; in the test with HLA-A*68:01 (setting [2]), ≥ 57300 nM.
As to IILSKIPYLR, the Kd in the test with HLA-A*03:01 (setting [3]) is 40.9 nM; in the test with HLA-A*11:01 (setting [3]) it was 40.7 nM; with HLA-A*31:01 (setting [3]), 4.77 nM; with HLA-A*33:01 (setting [3]), 251 nM; with HLA-A*68:01 (setting [3]), 0.777 nM.
As to NILGGVLHTK, the Kd with HLA-A*03:01 (setting [3]) was found to be 39 nM; with HLA-A*11:01 (setting [3]), 36.8 nM; with HLA-A*31:01 (setting [3]), 1820 nM; with HLA-A*33:01 (setting [3]) it was 1370 nM; with HLA-A*68:01 (setting [3]), 19.9 nM.
VFAYVGCYNK: the Kd in the test with HLA-A*03:01 (setting [1]) amounted to 1530 nM; with HLA-A*11:01 (setting [1]), 350 nM; with HLA-A*31:01 (setting [1]) it was 184 nM; with HLA-A*33:01 (setting [1]) it was 340 nM; with HLA-A*68:01 (setting [1]), 65.3 nM.
Take KIVNGVLSR: the Kd was 328 nM with HLA-A*03:01 (setting [3]); 89.2 nM with HLA-A*11:01 (setting [3]); 1400 nM with HLA-A*31:01 (setting [3]); 7030 nM in the test with HLA-A*33:01 (setting [3]); 2050 nM in the test with HLA-A*68:01 (setting [3]).
For the sequence MVGLFSNNPH, the Kd with HLA-A*03:01 (setting [4]) was ≥ 30200 nM; in the test with HLA-A*11:01 (setting [4]), 5960 nM; in the test with HLA-A*31:01 (setting [4]), 106 nM; with HLA-A*33:01 (setting [4]), 398 nM; with HLA-A*68:01 (setting [4]) it was 50 nM.
LTILDDNLY: the Kd with HLA-A*03:01 (setting [3]) is 11200 nM; in the test with HLA-A*11:01 (setting [3]) it was 3240 nM; in the test with HLA-A*31:01 (setting [3]), ≥ 31700 nM; in the test with HLA-A*33:01 (setting [3]) it was ≥ 69500 nM; with HLA-A*68:01 (setting [3]) it was 376 nM.
For SIKDVIHDY, in that order: 2830 nM, 2810 nM, 2260 nM, 19400 nM and 3550 nM.
With PTFQLLNMIK, the Kd in the test with HLA-A*03:01 (setting [3]) is 9050 nM; with HLA-A*11:01 (setting [3]), 93.8 nM; with HLA-A*31:01 (setting [3]), 12500 nM; with HLA-A*33:01 (setting [3]) it was ≥ 70000 nM; with HLA-A*68:01 (setting [3]), ≥ 10000 nM.
For STYSDICSK the same measures were 23.6 nM, 0.706 nM, 80.2 nM, 988 nM and 2.06 nM.
Consider ITDMINASLK, for which the Kd in the test with HLA-A*03:01 (setting [3]) is 151 nM; with HLA-A*11:01 (setting [3]), 81.2 nM; in the test with HLA-A*31:01 (setting [3]), 10600 nM; in the test with HLA-A*33:01 (setting [3]) it was ≥ 27300 nM; with HLA-A*68:01 (setting [3]) it was 76.3 nM.
For EALEYLSELK, in that order: 461 nM, 225 nM, 17900 nM, 5620 nM and 105 nM.
For TIAGGVCYY the same measures were 110 nM, 94.7 nM, 16200 nM, ≥ 51000 nM and 605 nM.
Take NKQYIHCFRK: the Kd with HLA-A*03:01 (setting [4]) is 973 nM; in the test with HLA-A*11:01 (setting [4]), 652 nM; with HLA-A*31:01 (setting [4]), 128 nM; in the test with HLA-A*33:01 (setting [4]), 17500 nM; with HLA-A*68:01 (setting [4]), 1500 nM.
TLDTMDDMKK: the equilibrium dissociation constant (Kd) in the test with HLA-A*03:01 (setting [3]) is 762 nM; in the test with HLA-A*11:01 (setting [3]), 287 nM; with HLA-A*31:01 (setting [3]), ≥ 30200 nM; with HLA-A*33:01 (setting [3]), ≥ 70000 nM; with HLA-A*68:01 (setting [3]), 2150 nM.
For VLNRHAITMY, in that order: 94.4 nM, 966 nM, ≥ 70000 nM, ≥ 70000 nM and 16800 nM.
For PLFDFVNEKY, in that order: ≥ 70100 nM, ≥ 69800 nM, ≥ 26800 nM, ≥ 70000 nM and ≥ 70200 nM.
For PVETLFGSY the same measures were ≥ 38900 nM, 2200 nM, ≥ 62300 nM, ≥ 77700 nM and ≥ 33500 nM.
Take IINDKGKQY: the Kd in the test with HLA-A*03:01 (setting [3]) is 1940 nM; with HLA-A*11:01 (setting [3]) it was 8380 nM; in the test with HLA-A*31:01 (setting [3]), ≥ 77900 nM; with HLA-A*33:01 (setting [3]), ≥ 77700 nM; with HLA-A*68:01 (setting [3]), ≥ 77700 nM.
As for NMRDLIVTFR, the Kd in the test with HLA-A*03:01 (setting [3]) was determined as 10500 nM; with HLA-A*11:01 (setting [3]), 14800 nM; in the test with HLA-A*31:01 (setting [3]) it was 1.14 nM; in the test with HLA-A*33:01 (setting [3]), 0.566 nM; with HLA-A*68:01 (setting [3]), 11.5 nM.
Consider SQIFNIISY, for which the equilibrium dissociation constant (Kd) with HLA-A*03:01 (setting [3]) stood at 675 nM; with HLA-A*11:01 (setting [3]) it was 53.5 nM; with HLA-A*31:01 (setting [3]), 915 nM; in the test with HLA-A*33:01 (setting [3]), 996 nM; with HLA-A*68:01 (setting [3]) it was 158 nM.
For PFKVINLPK the same measures were 9490 nM, 665 nM, 6360 nM, ≥ 77700 nM and 15500 nM.
For KSDNIINIGY, in that order: 106 nM, 142 nM, 3870 nM, ≥ 48600 nM and 2930 nM.
For YIFPGDKTSY the same measures were 258 nM, 1260 nM, 18700 nM, ≥ 70000 nM and 40.7 nM.
On to MTLVPVLEK, for which the equilibrium dissociation constant (Kd) with HLA-A*03:01 (setting [3]) is 25.3 nM; in the test with HLA-A*11:01 (setting [3]), 6.66 nM; with HLA-A*31:01 (setting [3]), 97.4 nM; with HLA-A*33:01 (setting [3]), 1330 nM; with HLA-A*68:01 (setting [3]) it was 5.78 nM.
As to EQQQSFMPK, the Kd in the test with HLA-A*03:01 (setting [3]) amounted to 2120 nM; in the test with HLA-A*11:01 (setting [3]), 11.3 nM; with HLA-A*31:01 (setting [3]), 5260 nM; with HLA-A*33:01 (setting [3]), 5470 nM; with HLA-A*68:01 (setting [3]) it was 131 nM.
For LIKFISDNKK the same measures were 142 nM, 1010 nM, 42.4 nM, ≥ 10000 nM and 47.2 nM.
Turning to SAQCFKMFYK, the dissociation constant (Kd) in the test with HLA-A*03:01 (setting [1]) is 18.4 nM; in the test with HLA-A*11:01 (setting [1]), 4.59 nM; with HLA-A*31:01 (setting [1]), 26.8 nM; with HLA-A*33:01 (setting [1]) it was 398 nM; with HLA-A*68:01 (setting [1]) it was 30.5 nM.
Take TQFNFNGHTY: the Kd was 218 nM in the test with HLA-A*03:01 (setting [3]); 965 nM with HLA-A*11:01 (setting [3]); 4060 nM with HLA-A*31:01 (setting [3]); 16100 nM with HLA-A*33:01 (setting [3]); 266 nM in the test with HLA-A*68:01 (setting [3]).
On to ATSRTLSYYK, for which the Kd in the test with HLA-A*03:01 (setting [1]) worked out at 3.32 nM; with HLA-A*11:01 (setting [1]) it was 3.16 nM; with HLA-A*31:01 (setting [1]) it was 14.9 nM; with HLA-A*33:01 (setting [1]), 6230 nM; in the test with HLA-A*68:01 (setting [1]) it was 15.3 nM.
Turning to AAKYVEHDPR, the Kd was ≥ 31000 nM with HLA-A*03:01 (setting [3]); ≥ 39000 nM with HLA-A*11:01 (setting [3]); 171 nM in the test with HLA-A*31:01 (setting [3]); 1480 nM with HLA-A*33:01 (setting [3]); 251 nM with HLA-A*68:01 (setting [3]).
With FSTSAADIKR, the Kd with HLA-A*03:01 (setting [3]) was 18000 nM; with HLA-A*11:01 (setting [3]), 247 nM; with HLA-A*31:01 (setting [3]), 11100 nM; in the test with HLA-A*33:01 (setting [3]) it was ≥ 22500 nM; with HLA-A*68:01 (setting [3]) it was 16.5 nM.
As to GVVRVWDVK, the Kd was 5790 nM with HLA-A*03:01 (setting [5]); 11.1 nM with HLA-A*11:01 (setting [5]); ≥ 45000 nM in the test with HLA-A*31:01 (setting [5]); ≥ 24200 nM in the test with HLA-A*33:01 (setting [5]); 129 nM with HLA-A*68:01 (setting [5]).
Consider DSFLRKIGDK, for which the equilibrium dissociation constant (Kd) is ≥ 59100 nM in the test with HLA-A*03:01 (setting [3]); 11700 nM in the test with HLA-A*11:01 (setting [3]); 3560 nM with HLA-A*31:01 (setting [3]); 1970 nM with HLA-A*33:01 (setting [3]); 6270 nM with HLA-A*68:01 (setting [3]).
For MVDELVTRK, in that order: 68.9 nM, 161 nM, 3950 nM, 2030 nM and 793 nM.
On to SIVLHIQLEH, for which the Kd is 1460 nM with HLA-A*03:01 (setting [6]); 1070 nM with HLA-A*11:01 (setting [6]); 11800 nM with HLA-A*31:01 (setting [6]); 8100 nM with HLA-A*33:01 (setting [6]); ≥ 22100 nM with HLA-A*68:01 (setting [6]).

One may read the Kd as the concentration at which binding is half-saturated.

The record behind these values is the Immune Epitope Database (IEDB).
